The values that follow come from the nanobody polyreactivity screen of Harvey et al. (2022).

This data set can be described thus: yeast display, Sf9 membrane polyspecificity reagent, FACS + sequencing; frameworks hold sequencing errors. Summed up: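 Galactose-induced (36–48 hours) yeast carrying a synthetic nanobody display library were exposed to 10% biotinylated, detergent-solubilized Sf9 membrane reagent at 4 °C for 1 hour. FACS followed streptavidin microbead enrichment, using low and high (top ~1%) gates for expression (anti-HA) and reagent binding (streptavidin). Colony PCR, MiSeq 2 × 250 sequencing and CDR-length filtering followed. Labels for polyreactivity reflect the gate of origin.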
Take “QVQLVESGGGLVQAGGSLRLSCAASGSIFSGNAMGWYRQAPGKERELVAAISRNGGSTYYADSVKGRFTISRDNAMNTVYLQMISLKPEDTAVYYCAASWYRRKIYYSWGQGTQVTVSS”: the “polyreactivity (PSR sort gate)” value is “high polyreactivity”.

As for “QVQLVESGGGLVQAGGSLRLSCAAYGYIFRLYAMGWYRQAPGKERELVAGISTGGRTNYADSVKGRFTISRDNAKNTVYLQMNSLKPEDTAVYYCAAAWHTAYWVVSDSLGGGYWGQGTQVTVSS”, the “polyreactivity (PSR sort gate)” value is listed as “low polyreactivity”.

“QVQLVESGVGIVQAGGSLRLSCAASGSIFKTNAMGWYRHAPGNERELVAAITGSGGSTYYADSVKGRFTISRDNAKNNVYLQMMSLKPEDTAVYYCAKRSYRPILRWSYDYWGQGTQVTVSS”: the “polyreactivity (PSR sort gate)” value was “low polyreactivity”.

“QVQLVESGGGLVQAGGSLRLSGAASGRTFGSNDMGWYRQAHGKERELVAAISGRTDSTYYADSVKGRFTISRDIAKNTVYLQMNSLKPEDTAVYYCAADSADVLYYYIRYNYWGQGTQVTVSS”: the “polyreactivity (PSR sort gate)” value is given as “low polyreactivity”.

For the sequence “QVQLVESGGGLVQAGGSLRLSCAASGSTFTLYVMGWYRQAPGKERELVAAISSNGGRTYYADSVKGRFTISRDNAKNTVYLQMNSLKPEDTAVYYCAAGKIGRYHYDYWGQGTQVTVSS”, the “polyreactivity (PSR sort gate)” value is recorded as “high polyreactivity”.

With “QVQLVESGGGLVQAGGSLRLSCAASGSILGDYAMGWYRQAPGSEREFVAAIDGSDGSTYYADSVKGRFTISRDNAKNTVYLQMNSLKPEDTAVYYCAATDYDTYRSSWYDYWGQGTQVTVSS”, the “polyreactivity (PSR sort gate)” value is “low polyreactivity”.

For “QVQLVESGGGLVQAGGSLRLICAASGRIFRRYAMGWYRQAPGKERELVASISLSGGSTYYADSVKGRFTISRDNAKNTVYLQMNSLKPEDTAVYYCAAVRPGVSNYGHWGQGTQLTVSS”, the “polyreactivity (PSR sort gate)” value is listed as “high polyreactivity”.

For “QVQLVESGVGLVQAGGSLRLSCAASGSSFTSNAMGSYRQAPGKEREFVAAISVGGGITYYADSVKGRFTISRDNAKNTVYLQMYSLKPEDTAVYYCAADGEYPHSEDFEYWGQGTQVTVSS”, the “polyreactivity (PSR sort gate)” value is recorded as “low polyreactivity”.

Take “QVQLVESGGGLVQAGGSLRLSCAASGSTFVRYVMGWYRQAPGKERELVAAISRRGGSTYYADSVKGRFTISRDNAKNTVYLQMNSLKPEDTAVYYCARTVGYRTLLESDSWGQGTQVTVSS”: the “polyreactivity (PSR sort gate)” value is listed as “high polyreactivity”.

With “KVQLVESGGGLVQAGGSLRLSCAASGSILSPNAMGWYRQAPGKERELVAAINSGGGSTYYADSVKGRFTLSRDNAKNTVYLQMNSLKPEDTAVYYCAADHYYYRSRAYTYIIYDYWGQGTQVTVSS”, the “polyreactivity (PSR sort gate)” value is “low polyreactivity”.

“QVQLVESGGGLVQAGGSLRLSCAASGSTLWVYAMGWYRQAPGKERELVAAITQSTGDTHYADSVKGRFTISRDNAKNTVYLQMNSLKPEDTAVYYCAADSYLSVYDPYGYWGQGTQVTVSS”: the “polyreactivity (PSR sort gate)” value is recorded as “low polyreactivity”.

With “QVQLVESGGGLVQAGGSLRLSCAASGFIFSGYAMGWSRQAPGKERELVAAITWSGSNTFYADSVKGRFTISRDNAKNTVYLQMNSLKPEDTAVYYCNAVSKYKRSDYYYWGQGTQVTVSS”, the “polyreactivity (PSR sort gate)” value is “high polyreactivity”.

Take “QVQLVESGGGLVQAGGRLRLSCAASGSTFGAYAMGWYRQAPGKERELVAAIRGSGAGTYYADSVKGRFTISRDNAKNTVYLQMNSLKPEDTAVYYCNTANLRSLGWTFRRYSYEYWGQGTQVTVSS”: the “polyreactivity (PSR sort gate)” value is listed as “high polyreactivity”.

On to “QVQLVESGGGLVQAGGSLRLSCAASGSTFDDNAMGWYRQAPGKERELVASITYRGGSTYYADSVKGRFTISRDNAKNTVYLQMNSLKPEDTAVYYCAKGHYFKYDYWGQGTQVTVSS”, for which the “polyreactivity (PSR sort gate)” value is reported as “low polyreactivity”.

As for “QVQLVESGGGLVQAGGSLRLSCAASGSIFHYNAMGWYRQAPGKERELVAAISWRGGTTYYADSVKGRFTISRDNAKNTVYLQMNSLKPEDTAVYYCNRAYVYTYQRRDYDYWGQGTQVTVSS”, the “polyreactivity (PSR sort gate)” value was “low polyreactivity”.

In the case of “QVQLEESGGGLVQAGGSLRLSCAASGLILRTYGMGWYRQAPGKERELVAVISSGGSTYYADSVKGRFTISRDNAKNTVYLQMNSLKPEDTAVYYCAVRSSWYEGDYWGQGTQVTVSS”, the “polyreactivity (PSR sort gate)” value is “low polyreactivity”.

Consider “QVQLVESGGGLVQAGGSLRLSCAASGRTFLYYTMGWYRQAPGKERELVAAITSGTSTNYADSVKGRFTIARDNAKNTVYLQMNSQKPEDTAVYYCNKRAARSLNGYPLYGYYSWGQGTQVTVSS”, for which the “polyreactivity (PSR sort gate)” value is recorded as “low polyreactivity”.

On to “QVQLVESGGGLVQAGGSLRLSCAASGRIFRGNVMGWYRQAPGKERELVAAINSGASSNYADSVKGRFTISRDNAKNTVYLQMNSLKPEDTAVYYCAKRGPRSYFQPCYDYWGQGTQVTVSS”, for which the “polyreactivity (PSR sort gate)” value is on record as “high polyreactivity”.

For the sequence “QVQLQGSGGGLVQAAGSLRLSCAASGYIFQNVPMGWNRQAPGKERELVAGIDNGTSTNYADSVNGRFTISRDNAKKTVYLQMNSLKPEDTAVYYCAAAGQADDTLGYWGQGTQVTVSR”, the “polyreactivity (PSR sort gate)” value was “low polyreactivity”.

On to “QVQLVESGGGLVQAGGSLRLSCAASGSTFIYYAMGWYRQAPGKERELVAGISIRGGSTYADSVKGRFTISRDNAKNTVYLQKNSLKPEDTAVYFCNAYKRIKANGYAIRYYYWGQGTQVTVSS”, for which the “polyreactivity (PSR sort gate)” value is reported as “high polyreactivity”.

Turning to “QVQLVESGGGLVQAGGSLRLSCAASGRIFYGYTMGWYRQAPGKERELVAAITQRGGNTHYADSVKGRFTISRDNGKNTVYLHMNRLKPEDTAVYYCAAKYYPYVRGVQYYYWGQGTQVTVSS”, the “polyreactivity (PSR sort gate)” value is on record as “high polyreactivity”.

On to “QVQLVESGGGLVQAGGSLRLSCAASGRIFYLYAMGWYRQAPGKERELVARITSGSGTYYADSVKGRFTISRDNAKNTVYLQMNSLKPEDTAVYYCAAREPGVGYVGHYTGLDYWGQGTQVTVSS”, for which the “polyreactivity (PSR sort gate)” value is on record as “low polyreactivity”.

Take “QVQLVESGGGLVQAGGSLRISCAASGITFTSYAMGWYRQAPGKERELVAAISSSGVRTYYADSVKGRFTISRDNAKNTVYLQLNSLKPEDTAVYYCATRRRVLDGYDYGGQGTQVTVSS”: the “polyreactivity (PSR sort gate)” value is “high polyreactivity”.

Take “QVQLVESGGGLVQAGGRLRLSCAASGSTFVKNTMGWYIQPPGKERELVAAISSRGGSTYYADSVKGRFTISRDNEKNTVYFQMNSLKPEDTAVYYCAKDGRVSRDFDYWGQGTQVTVSS”: the “polyreactivity (PSR sort gate)” value is “low polyreactivity”.

With “QVQLVESGGGLFQAGGSLRLSCAASGSTFESNAMGWYRQAPGKERELVAAISSSGGSTYYADSVKGRFTISRDNAKNTVYLQMNSLKPEVTAVYYCNKGGLSYYDYWGQVTQVTVSS”, the “polyreactivity (PSR sort gate)” value is “high polyreactivity”.

Regarding “QVQLVESGGGLVQAGGSLRLSCAASGRTFPYYAMGWYRQAPGKERELVAAISSSGGRTYYADSVKGRFTISRDNAKNTVYLQMNSLKPEDTAVYYRNVDAWYPYQGFLVGYYYWGQGTQVTVSS”, the “polyreactivity (PSR sort gate)” value is given as “low polyreactivity”.

For the sequence “QVQLVESGGGLVQAGGSLRLSCAASGFTFFPYAMGWYRQAPGKERELVAGITYIGGSTYYADSVKGRFTISRDNAKNTVYLQMNSLKPEDTAVYYCNAGRIGGFDWGQGTQVTVSS”, the “polyreactivity (PSR sort gate)” value is reported as “low polyreactivity”.

Consider “QVQLVESGGGLVQAGGSLRLSCAASGYIFDHYAMGWYRQAPGKEREFVAAISRSAGSTYYADSVKGRFTISRDNAQNTVYLQMNSLKPEDTAVYYCNAVVAVRSWRKYEYWGQGTQVTVSS”, for which the “polyreactivity (PSR sort gate)” value is reported as “high polyreactivity”.

Regarding “QVQLVESGGGLVQARGSRRLSCAASGFIFRFNAMGWYRQAPGKERELVASITGSGGITYADSVKRRFTMSRDNAKNTVFLPMHSLKPDDTAVYYSAARGDGYQSGWVADWAPFYYWRQGTQVTVSS”, the “polyreactivity (PSR sort gate)” value is reported as “high polyreactivity”.

For the sequence “QVQLVESGGGLVQAGGSLRLSCAAAGRTFGDYDMGWYRQAPGKERELVAAITSDGTTYYADYVKGRFTISGDNAKNTVYLQMNSLKPEDTAVYYCAADYWYVSWYDYWGHGTQVTVSS”, the “polyreactivity (PSR sort gate)” value is on record as “low polyreactivity”.

On to “QVQLVESGGGLVQAGGSLRLSCAASGLIFQYYVMGWYRQAPGKERELVAAISARGGGTYYADSVKGRFTISRDNEKITVYLQMNSLKPEDTAVYYCAADFGTIRVYSGDYWGQGTQVTVSS”, for which the “polyreactivity (PSR sort gate)” value was “high polyreactivity”.

Regarding “QVQLVESGGGLVQAGGSLRLSCAASGLTFDAYAMGWYRQAPGKERELVAAISSGGNSYYADSVKGRFTISRDNAKNTVYLQMNSLKPEDTAVYYCNAVGYYKYFFLAYEYDYWGQGTQVTVSS”, the “polyreactivity (PSR sort gate)” value is “low polyreactivity”.

Turning to “QVQLVESGGGLVQAGGSLRLSCAASGSTFSVNAMGWYRQAPGKERELVAAITYSGGSTYYADSVKGRFTISRDNAKNTVYLQMNSLKPEDTAVYYCAAEARYWIYEYDYWGQGTQVTVSS”, the “polyreactivity (PSR sort gate)” value is reported as “high polyreactivity”.

Take “QVQLVESGGGLVQAGGRLRLSCAASGITIYGYAMGWYRQAPGKEREFVAAISYSGASTYYADSVKGRFTISRDNAKNTVYLQMNSLKPEDTAVYYCAARVRRSLYGYWGIGTQVTVSS”: the “polyreactivity (PSR sort gate)” value was “high polyreactivity”.

“QVQLVESGGGLVQAGGSLRLSCAASGSTFYSNAMGWYRQAPGKERELVAAINYSGGRTYYADSVKGRFTLSRDNAKNTVYLQMNSLKPEDTAVYYCNAQFYNVRGYYIGEYWGQGTQVTVSS”: the “polyreactivity (PSR sort gate)” value is “high polyreactivity”.

Take “QVQLVESGGGLVQAGGSLRLSCAASGFTLGNYAMGWYRQAPGKERELVAVITSGGRTYYADSVKGRFTISRDNAKNTVYLQMNSLKPEDTAVYYCNTKVYYYYRAVVDFDYWGQGTQVTVSS”: the “polyreactivity (PSR sort gate)” value is “low polyreactivity”.

As for “QVQLVESGGGLVQAGGSLRLSCAASGITFLYYAMGWYRQAPGQERELVAAITSSGGRTYYADSVKGRFTISRDNAKNTVYLQMNSLKPEDTAVYYCAADSRTYNGGYYWGQGTQVTVSS”, the “polyreactivity (PSR sort gate)” value is “high polyreactivity”.

On to “QVQLVESGGGLVQAGGSLRLSCAASGLIFDDYDMGWYRQAPGKERELVAAISLSGGSTFYADSVKGRFTISRDNAKNTVYLLMNSLKPEDTAVYYCAAQARRAYVQTRKYYWGQGTQVTVSS”, for which the “polyreactivity (PSR sort gate)” value is on record as “high polyreactivity”.

Consider “QVQLVESGGGLVQAGGSLRLSCAASGITIVYYAMGWYRQAPGKERELVAAITRGGNTYYADSVKGRFTISRDNAKNTVYLQMNSLKPEDTAVYYCAAVGYYYSALDMDYWGQGTQVTVSS”, for which the “polyreactivity (PSR sort gate)” value was “low polyreactivity”.

Consider “QVQLVESGGGLVQAGGSLRLSCAASGITFRYYAKGWYRQAPGKERELVAAISRAGSTNYADSVKGRFTISRDNAKNTVYLQMNSLKPVDTAVYSCNARRRSTNAVSYRYITPYDYWGQGTQVTVSS”, for which the “polyreactivity (PSR sort gate)” value is listed as “high polyreactivity”.
